Measured values as given in IntAct's records for PubMed 15105431.

B1: T-cell surface antigen CD2 (Homo sapiens), P06729 (parent)
chain: MSFPCKFVASFLLIFNVSSKGAVSKEITNALETWGALGQDINLDIPSFQMSDDIDDIKWEKTSDKKKIAQFRKEKETFKEKDTYKLFKNGTLKIKHLKTDDQDIYKVSIYDTKGKNVLEKIFDLKIQERVSKPKISWTCINTTLTCEVMNGTDPELNLYQDGKHLKLSQRVITHKWTTSLSAKFKCTAGNKVSKESSVEPVSCPEKGLDIYLIIGICGGGSLLMVFVALLVFYITKRKKQRSRRNDEELETRAHRVATEERGRKPHQIPASTPQNPATSQHPPPPPGHRSQAPSHRPPPPGHRVQHQPQKRPPAPSGTQVHQQKGPPLPRPRVQPKPPHGAAENSLSPSSN
partner: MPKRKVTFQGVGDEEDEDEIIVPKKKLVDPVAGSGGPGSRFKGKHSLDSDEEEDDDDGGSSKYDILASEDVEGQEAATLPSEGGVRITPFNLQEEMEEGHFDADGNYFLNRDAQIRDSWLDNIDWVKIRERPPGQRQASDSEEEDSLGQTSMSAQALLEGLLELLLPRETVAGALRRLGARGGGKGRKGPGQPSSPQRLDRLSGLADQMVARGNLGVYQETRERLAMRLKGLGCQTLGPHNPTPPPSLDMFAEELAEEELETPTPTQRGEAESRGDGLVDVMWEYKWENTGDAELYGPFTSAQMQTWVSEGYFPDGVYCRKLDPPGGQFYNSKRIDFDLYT

Variants of: B1
Conditions: with cd2b2_human CD2BP2, O95400

Variant	effect of a mutation on the interaction
MSFPCKFVASFLLIFNVSSKGAVSKEITNALETWGALGQDINLDIPSFQMSDDIDDIKWEKTSDKKKIAQFRKEKETFKEKDTYKLFKNGTLKIKHLKTDDQDIYKVSIYDTKGKNVLEKIFDLKIQERVSKPKISWTCINTTLTCEVMNGTDPELNLYQDGKHLKLSQRVITHKWTTSLSAKFKCTAGNKVSKESSVEPVSCPEKGLDIYLIIGICGGGSLLMVFVALLVFYITKRKKQRSRRNDEELETRAHRVATEERGRKPHQIPASTPQNPATSQHPPPPPGHRSQAPSHRPPAPGHRVQHQPQKRPPAPSGTQVHQQKGPPLPRPRVQPKPPHGAAENSLSPSSN [P299A]	disrupting interaction strength
MSFPCKFVASFLLIFNVSSKGAVSKEITNALETWGALGQDINLDIPSFQMSDDIDDIKWEKTSDKKKIAQFRKEKETFKEKDTYKLFKNGTLKIKHLKTDDQDIYKVSIYDTKGKNVLEKIFDLKIQERVSKPKISWTCINTTLTCEVMNGTDPELNLYQDGKHLKLSQRVITHKWTTSLSAKFKCTAGNKVSKESSVEPVSCPEKGLDIYLIIGICGGGSLLMVFVALLVFYITKRKKQRSRRNDEELETRAHRVATEERGRKPHQIPASTPQNPATSQHPPPPPGHRSQAPSHMPPPPGHRVQHQPQKRPPAPSGTQVHQQKGPPLPRPRVQPKPPHGAAENSLSPSSN [R296M]	decreasing interaction strength
MSFPCKFVASFLLIFNVSSKGAVSKEITNALETWGALGQDINLDIPSFQMSDDIDDIKWEKTSDKKKIAQFRKEKETFKEKDTYKLFKNGTLKIKHLKTDDQDIYKVSIYDTKGKNVLEKIFDLKIQERVSKPKISWTCINTTLTCEVMNGTDPELNLYQDGKHLKLSQRVITHKWTTSLSAKFKCTAGNKVSKESSVEPVSCPEKGLDIYLIIGICGGGSLLMVFVALLVFYITKRKKQRSRRNDEELETRAHRVATEERGRKPHQIPASTPQNPATSQHPPPPPGHRSQAPSHRPHPPGHRVQHQPQKRPPAPSGTQVHQQKGPPLPRPRVQPKPPHGAAENSLSPSSN [P298H]	decreasing interaction strength
MSFPCKFVASFLLIFNVSSKGAVSKEITNALETWGALGQDINLDIPSFQMSDDIDDIKWEKTSDKKKIAQFRKEKETFKEKDTYKLFKNGTLKIKHLKTDDQDIYKVSIYDTKGKNVLEKIFDLKIQERVSKPKISWTCINTTLTCEVMNGTDPELNLYQDGKHLKLSQRVITHKWTTSLSAKFKCTAGNKVSKESSVEPVSCPEKGLDIYLIIGICGGGSLLMVFVALLVFYITKRKKQRSRRNDEELETRAHRVATEERGRKPHQIPASTPQNPATSQHPPPPPGHRSQAPSHRPMPPGHRVQHQPQKRPPAPSGTQVHQQKGPPLPRPRVQPKPPHGAAENSLSPSSN [P298M]	disrupting interaction strength
MSFPCKFVASFLLIFNVSSKGAVSKEITNALETWGALGQDINLDIPSFQMSDDIDDIKWEKTSDKKKIAQFRKEKETFKEKDTYKLFKNGTLKIKHLKTDDQDIYKVSIYDTKGKNVLEKIFDLKIQERVSKPKISWTCINTTLTCEVMNGTDPELNLYQDGKHLKLSQRVITHKWTTSLSAKFKCTAGNKVSKESSVEPVSCPEKGLDIYLIIGICGGGSLLMVFVALLVFYITKRKKQRSRRNDEELETRAHRVATEERGRKPHQIPASTPQNPATSQHPPPPPGHRSQAPSHRPNPPGHRVQHQPQKRPPAPSGTQVHQQKGPPLPRPRVQPKPPHGAAENSLSPSSN [P298N]	disrupting interaction strength
MSFPCKFVASFLLIFNVSSKGAVSKEITNALETWGALGQDINLDIPSFQMSDDIDDIKWEKTSDKKKIAQFRKEKETFKEKDTYKLFKNGTLKIKHLKTDDQDIYKVSIYDTKGKNVLEKIFDLKIQERVSKPKISWTCINTTLTCEVMNGTDPELNLYQDGKHLKLSQRVITHKWTTSLSAKFKCTAGNKVSKESSVEPVSCPEKGLDIYLIIGICGGGSLLMVFVALLVFYITKRKKQRSRRNDEELETRAHRVATEERGRKPHQIPASTPQNPATSQHPPPPPGHRSQAPSDRPPPPGHRVQHQPQKRPPAPSGTQVHQQKGPPLPRPRVQPKPPHGAAENSLSPSSN [H295D]	decreasing interaction strength
MSFPCKFVASFLLIFNVSSKGAVSKEITNALETWGALGQDINLDIPSFQMSDDIDDIKWEKTSDKKKIAQFRKEKETFKEKDTYKLFKNGTLKIKHLKTDDQDIYKVSIYDTKGKNVLEKIFDLKIQERVSKPKISWTCINTTLTCEVMNGTDPELNLYQDGKHLKLSQRVITHKWTTSLSAKFKCTAGNKVSKESSVEPVSCPEKGLDIYLIIGICGGGSLLMVFVALLVFYITKRKKQRSRRNDEELETRAHRVATEERGRKPHQIPASTPQNPATSQHPPPPPGHRSQAPSERPPPPGHRVQHQPQKRPPAPSGTQVHQQKGPPLPRPRVQPKPPHGAAENSLSPSSN [H295E]	decreasing interaction strength

Results, then the variant that gave them:

effect of a mutation on the interaction	Variant
decreasing interaction strength	MSFPCKFVASFLLIFNVSSKGAVSKEITNALETWGALGQDINLDIPSFQMSDDIDDIKWEKTSDKKKIAQFRKEKETFKEKDTYKLFKNGTLKIKHLKTDDQDIYKVSIYDTKGKNVLEKIFDLKIQERVSKPKISWTCINTTLTCEVMNGTDPELNLYQDGKHLKLSQRVITHKWTTSLSAKFKCTAGNKVSKESSVEPVSCPEKGLDIYLIIGICGGGSLLMVFVALLVFYITKRKKQRSRRNDEELETRAHRVATEERGRKPHQIPASTPQNPATSQHPPPPPGHRSQAPSHCPPPPGHRVQHQPQKRPPAPSGTQVHQQKGPPLPRPRVQPKPPHGAAENSLSPSSN [R296C]
decreasing interaction strength	MSFPCKFVASFLLIFNVSSKGAVSKEITNALETWGALGQDINLDIPSFQMSDDIDDIKWEKTSDKKKIAQFRKEKETFKEKDTYKLFKNGTLKIKHLKTDDQDIYKVSIYDTKGKNVLEKIFDLKIQERVSKPKISWTCINTTLTCEVMNGTDPELNLYQDGKHLKLSQRVITHKWTTSLSAKFKCTAGNKVSKESSVEPVSCPEKGLDIYLIIGICGGGSLLMVFVALLVFYITKRKKQRSRRNDEELETRAHRVATEERGRKPHQIPASTPQNPATSQHPPPPPGHRSQAPSHAPPPPGHRVQHQPQKRPPAPSGTQVHQQKGPPLPRPRVQPKPPHGAAENSLSPSSN [R296A]
disrupting interaction strength	MSFPCKFVASFLLIFNVSSKGAVSKEITNALETWGALGQDINLDIPSFQMSDDIDDIKWEKTSDKKKIAQFRKEKETFKEKDTYKLFKNGTLKIKHLKTDDQDIYKVSIYDTKGKNVLEKIFDLKIQERVSKPKISWTCINTTLTCEVMNGTDPELNLYQDGKHLKLSQRVITHKWTTSLSAKFKCTAGNKVSKESSVEPVSCPEKGLDIYLIIGICGGGSLLMVFVALLVFYITKRKKQRSRRNDEELETRAHRVATEERGRKPHQIPASTPQNPATSQHPPPPPGHRSQAPSHEPPPPGHRVQHQPQKRPPAPSGTQVHQQKGPPLPRPRVQPKPPHGAAENSLSPSSN [R296E]
disrupting interaction strength	MSFPCKFVASFLLIFNVSSKGAVSKEITNALETWGALGQDINLDIPSFQMSDDIDDIKWEKTSDKKKIAQFRKEKETFKEKDTYKLFKNGTLKIKHLKTDDQDIYKVSIYDTKGKNVLEKIFDLKIQERVSKPKISWTCINTTLTCEVMNGTDPELNLYQDGKHLKLSQRVITHKWTTSLSAKFKCTAGNKVSKESSVEPVSCPEKGLDIYLIIGICGGGSLLMVFVALLVFYITKRKKQRSRRNDEELETRAHRVATEERGRKPHQIPASTPQNPATSQHPPPPPGHRSQAPSHDPPPPGHRVQHQPQKRPPAPSGTQVHQQKGPPLPRPRVQPKPPHGAAENSLSPSSN [R296D]
decreasing interaction strength	MSFPCKFVASFLLIFNVSSKGAVSKEITNALETWGALGQDINLDIPSFQMSDDIDDIKWEKTSDKKKIAQFRKEKETFKEKDTYKLFKNGTLKIKHLKTDDQDIYKVSIYDTKGKNVLEKIFDLKIQERVSKPKISWTCINTTLTCEVMNGTDPELNLYQDGKHLKLSQRVITHKWTTSLSAKFKCTAGNKVSKESSVEPVSCPEKGLDIYLIIGICGGGSLLMVFVALLVFYITKRKKQRSRRNDEELETRAHRVATEERGRKPHQIPASTPQNPATSQHPPPPPGHRSQAPSHLPPPPGHRVQHQPQKRPPAPSGTQVHQQKGPPLPRPRVQPKPPHGAAENSLSPSSN [R296L]
decreasing interaction strength	MSFPCKFVASFLLIFNVSSKGAVSKEITNALETWGALGQDINLDIPSFQMSDDIDDIKWEKTSDKKKIAQFRKEKETFKEKDTYKLFKNGTLKIKHLKTDDQDIYKVSIYDTKGKNVLEKIFDLKIQERVSKPKISWTCINTTLTCEVMNGTDPELNLYQDGKHLKLSQRVITHKWTTSLSAKFKCTAGNKVSKESSVEPVSCPEKGLDIYLIIGICGGGSLLMVFVALLVFYITKRKKQRSRRNDEELETRAHRVATEERGRKPHQIPASTPQNPATSQHPPPPPGHRSQAPDHRPPPPGHRVQHQPQKRPPAPSGTQVHQQKGPPLPRPRVQPKPPHGAAENSLSPSSN [S294D]
decreasing interaction strength	MSFPCKFVASFLLIFNVSSKGAVSKEITNALETWGALGQDINLDIPSFQMSDDIDDIKWEKTSDKKKIAQFRKEKETFKEKDTYKLFKNGTLKIKHLKTDDQDIYKVSIYDTKGKNVLEKIFDLKIQERVSKPKISWTCINTTLTCEVMNGTDPELNLYQDGKHLKLSQRVITHKWTTSLSAKFKCTAGNKVSKESSVEPVSCPEKGLDIYLIIGICGGGSLLMVFVALLVFYITKRKKQRSRRNDEELETRAHRVATEERGRKPHQIPASTPQNPATSQHPPPPPGHRSQAPEHRPPPPGHRVQHQPQKRPPAPSGTQVHQQKGPPLPRPRVQPKPPHGAAENSLSPSSN [S294E]
disrupting interaction strength	MSFPCKFVASFLLIFNVSSKGAVSKEITNALETWGALGQDINLDIPSFQMSDDIDDIKWEKTSDKKKIAQFRKEKETFKEKDTYKLFKNGTLKIKHLKTDDQDIYKVSIYDTKGKNVLEKIFDLKIQERVSKPKISWTCINTTLTCEVMNGTDPELNLYQDGKHLKLSQRVITHKWTTSLSAKFKCTAGNKVSKESSVEPVSCPEKGLDIYLIIGICGGGSLLMVFVALLVFYITKRKKQRSRRNDEELETRAHRVATEERGRKPHQIPASTPQNPATSQHPPPPPGHRSQAPSHRPEPPGHRVQHQPQKRPPAPSGTQVHQQKGPPLPRPRVQPKPPHGAAENSLSPSSN [P298E]
disrupting interaction strength	MSFPCKFVASFLLIFNVSSKGAVSKEITNALETWGALGQDINLDIPSFQMSDDIDDIKWEKTSDKKKIAQFRKEKETFKEKDTYKLFKNGTLKIKHLKTDDQDIYKVSIYDTKGKNVLEKIFDLKIQERVSKPKISWTCINTTLTCEVMNGTDPELNLYQDGKHLKLSQRVITHKWTTSLSAKFKCTAGNKVSKESSVEPVSCPEKGLDIYLIIGICGGGSLLMVFVALLVFYITKRKKQRSRRNDEELETRAHRVATEERGRKPHQIPASTPQNPATSQHPPPPPGHRSQAPSHRPDPPGHRVQHQPQKRPPAPSGTQVHQQKGPPLPRPRVQPKPPHGAAENSLSPSSN [P298D]
